According to publication PMC4482077:

How the values were obtained:
Test in all cases: AUC
[1] = molecular target: E. faecalis S613 LiaR (wild type, full length) (Enterococcus faecalis S613)
[2] = molecular target: LiaR^(DBD), isolated DNA binding domain of wild-type E. faecalis S613 LiaR (residues 140-206) (Enterococcus faecalis S613)
[3] = molecular target: LiaR^(DBD)D191N, isolated DNA binding domain of E. faecalis S613 LiaR (residues 140-206) with D191N (Enterococcus faecalis S613)
[4] = molecular target: LiaR^D50E (phosphomimetic mutant of E. faecalis S613 LiaR) (Enterococcus faecalis S613)
[5] = molecular target: LiaR^D191N (adaptive mutant of E. faecalis S613 LiaR) (Enterococcus faecalis S613)

With “E. faecalis S613 LiaR (wild type, full length) (natural protein)” the Kd [1] was 24000 nM and the stoichiometry N [1] was 4.
“LiaR^(DBD), isolated DNA binding domain of wild-type E. faecalis S613 LiaR (residues 140-206) (domain or fragment)” was tested, and the Kd [2] was 2000 nM and the stoichiometry N [2] was 2.
With “LiaR^(DBD)D191N, isolated DNA binding domain of E. faecalis S613 LiaR (residues 140-206) with D191N (domain or fragment)” the Kd [3] was < 40 nM and the stoichiometry N [3] was 2.
“LiaR^D50E (phosphomimetic mutant of E. faecalis S613 LiaR) (natural protein)” was tested, and the stoichiometry N [4] was 4.
For “LiaR^D191N (adaptive mutant of E. faecalis S613 LiaR) (natural protein)”, the Kd [5] was < 60 nM and the stoichiometry N [5] was 4.
